According to patent publication CN110294802A:

Target: HAdV7灭活病毒 (human/CHN/GZ6965/2001)

B1: 10G12抗体 (antibody, V domains shown)
VH: QVQLKQPGAELVRPGASVKLSCKASGYSFTNYWMHWMKQRPGQGLEWIGMIDPSDSETRLNQKFKDKATLTVDKSSSIAYMQLSSPTSEDSAVYYCARDRYDGGAWFDYWSQGTLVT
VL: DIVMTQTPLSLPVSLGDQASISCRSSQSLVHSNGNTYLHWYLQKPGQSPKLLIYKVSNRFSGVPDRFSVSGSGTDFTLKISRVEAEDLGVYFCSQSTHVPPTFGGGTKLEIK
EC50: 0.14 nM
